Measurements published in patent US20140112930A1 (published 2014).

Legend:
hAng-2FD-mFc Y-475-H = target: T1, hAng-2FD-mFc Y-475-H (human, UniProt O15123 282-496); experiment: SPR 25C, hAng-2FD-mFc captured on anti-mFc, 100 nM analyte
T1 construct: not shown: mouse Fc
T1 chain: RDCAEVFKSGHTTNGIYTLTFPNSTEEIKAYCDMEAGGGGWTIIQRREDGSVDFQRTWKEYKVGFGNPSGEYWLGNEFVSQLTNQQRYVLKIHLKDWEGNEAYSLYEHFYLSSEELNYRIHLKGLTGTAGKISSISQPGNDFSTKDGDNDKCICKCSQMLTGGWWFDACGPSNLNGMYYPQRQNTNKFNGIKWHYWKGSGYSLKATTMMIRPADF

hAng-2FD-mFc F-469-L = target: T2, hAng-2FD-mFc F-469-L (human, UniProt O15123 282-496); experiment: as above
T2 construct: not shown: mouse Fc
T2 chain: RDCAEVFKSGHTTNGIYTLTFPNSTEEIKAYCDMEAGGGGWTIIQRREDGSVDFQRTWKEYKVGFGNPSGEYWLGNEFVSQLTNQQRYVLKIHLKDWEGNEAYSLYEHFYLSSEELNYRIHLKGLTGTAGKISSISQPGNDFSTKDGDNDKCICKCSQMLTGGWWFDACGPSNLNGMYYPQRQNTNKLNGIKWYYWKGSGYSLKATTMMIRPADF

hAng-2FD-mFc S-480-P = target: T3, hAng-2FD-mFc S-480-P (human, UniProt O15123 282-496); experiment: as above
T3 construct: not shown: mouse Fc
T3 chain: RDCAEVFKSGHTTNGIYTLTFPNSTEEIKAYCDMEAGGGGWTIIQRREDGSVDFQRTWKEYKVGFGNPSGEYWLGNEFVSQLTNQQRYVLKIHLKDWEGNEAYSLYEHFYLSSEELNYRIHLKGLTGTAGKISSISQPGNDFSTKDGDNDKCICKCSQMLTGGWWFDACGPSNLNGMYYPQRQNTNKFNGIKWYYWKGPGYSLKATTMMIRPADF

Biotin-hBA2 = target: T4, Biotin-hBA2 (human, biotinylated (sites not given)); experiment: blocking ELISA, biotin-hBA2 to hTie-2
T4 construct: hBA2 consists of two dimers; also called biotinylated hBA2; human bow-Ang2
T4 sequence (chain, as listed by the source limits assumed): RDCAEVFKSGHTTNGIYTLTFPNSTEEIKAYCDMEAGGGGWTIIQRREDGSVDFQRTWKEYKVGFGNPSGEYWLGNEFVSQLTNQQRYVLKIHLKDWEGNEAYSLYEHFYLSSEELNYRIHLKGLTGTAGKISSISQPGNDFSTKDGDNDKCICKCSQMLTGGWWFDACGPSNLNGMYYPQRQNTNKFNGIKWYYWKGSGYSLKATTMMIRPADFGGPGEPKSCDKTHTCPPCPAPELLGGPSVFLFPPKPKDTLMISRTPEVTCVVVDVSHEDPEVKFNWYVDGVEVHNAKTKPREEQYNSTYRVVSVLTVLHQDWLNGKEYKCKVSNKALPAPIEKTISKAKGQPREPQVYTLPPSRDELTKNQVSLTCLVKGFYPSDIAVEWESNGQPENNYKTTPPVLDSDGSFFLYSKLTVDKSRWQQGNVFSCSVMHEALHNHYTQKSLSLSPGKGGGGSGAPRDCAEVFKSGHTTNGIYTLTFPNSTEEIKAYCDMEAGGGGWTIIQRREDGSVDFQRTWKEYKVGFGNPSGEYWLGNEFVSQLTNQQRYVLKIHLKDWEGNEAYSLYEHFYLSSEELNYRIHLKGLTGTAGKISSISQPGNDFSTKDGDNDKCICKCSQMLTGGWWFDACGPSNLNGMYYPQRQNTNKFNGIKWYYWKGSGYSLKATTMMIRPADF

[1] = target: T5, Full-length human Ang-2 protein conjugated to 6x histidine tag (human, UniProt O15123 19-496); experiment: blocking ELISA, 0.6 nM hAng-2-His to coated hTie-2-mFc
T5 construct: Bought (R&D Systems); printed as full-length; also called hAng-2 WT; Ang-2-His; not shown: 6x histidine tag
T5 sequence: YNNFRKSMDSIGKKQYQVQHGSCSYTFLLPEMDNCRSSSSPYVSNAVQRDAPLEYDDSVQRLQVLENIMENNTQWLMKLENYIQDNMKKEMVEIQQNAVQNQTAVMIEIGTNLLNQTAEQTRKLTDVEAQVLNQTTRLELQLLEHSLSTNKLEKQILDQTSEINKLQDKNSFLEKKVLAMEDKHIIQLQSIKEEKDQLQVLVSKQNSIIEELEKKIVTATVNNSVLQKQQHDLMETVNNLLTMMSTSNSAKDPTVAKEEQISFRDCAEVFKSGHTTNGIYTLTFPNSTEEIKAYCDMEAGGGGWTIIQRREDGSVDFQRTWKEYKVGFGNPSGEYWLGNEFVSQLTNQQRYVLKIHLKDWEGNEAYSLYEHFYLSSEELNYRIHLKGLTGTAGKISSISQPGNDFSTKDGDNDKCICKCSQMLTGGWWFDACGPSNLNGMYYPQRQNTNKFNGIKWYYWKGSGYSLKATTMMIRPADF
Description: Briefly, hTie-2-mFc (a chimeric construct consisting of human Tie-2 conjugated to mouse IgG; SEQ ID NO:525) was coated onto 96-well plates at a concentration of 2 μg/ml and incubated overnight followed by washing four times in wash buffer (PBS with 0.05% Tween-20). The plate was then blocked with PBS (Irvine Scientific, Santa Ana, Calif.) containing 0.5% BSA (Sigma-Aldrich Corp., St. Louis, Mo.) for one hour at room temperature. […] The antibody/antigen mixture was then added to the plate containing hTie-2-mFc and incubated for one hour at room temperature. […] Absorbance was read at OD₄₅₀ for 0.1 sec.

Monkey Ang-2FD-hFc = target: T6, Monkey Ang-2FD-hFc (monkey (Macca fascicularis)); experiment: blocking ELISA, 16.67 nM antibody, Ang-2FD-hFc to coated hTie-2-mFc
T6 construct: also called dimeric monkey Ang-2FD
T6 sequence (chain, as listed by the source limits assumed): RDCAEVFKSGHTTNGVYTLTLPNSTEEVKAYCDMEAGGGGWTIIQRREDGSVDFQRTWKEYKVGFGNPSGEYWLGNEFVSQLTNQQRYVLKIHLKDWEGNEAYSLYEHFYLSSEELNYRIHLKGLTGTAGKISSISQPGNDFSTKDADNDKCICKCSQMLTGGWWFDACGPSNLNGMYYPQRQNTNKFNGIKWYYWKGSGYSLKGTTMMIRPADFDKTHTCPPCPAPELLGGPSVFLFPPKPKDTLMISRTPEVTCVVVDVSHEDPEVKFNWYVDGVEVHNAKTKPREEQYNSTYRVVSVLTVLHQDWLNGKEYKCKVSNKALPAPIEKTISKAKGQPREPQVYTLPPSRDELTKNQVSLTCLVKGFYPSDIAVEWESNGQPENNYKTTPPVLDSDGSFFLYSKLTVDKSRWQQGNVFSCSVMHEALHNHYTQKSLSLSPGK

Human Ang-2FD-hFc = target: T7, Human Ang-2FD-hFc (human); experiment: as above
T7 construct: also called dimeric human Ang-2FD; human Ang-2FD protein conjugated to human IgG
T7 sequence (chain, as listed by the source limits assumed): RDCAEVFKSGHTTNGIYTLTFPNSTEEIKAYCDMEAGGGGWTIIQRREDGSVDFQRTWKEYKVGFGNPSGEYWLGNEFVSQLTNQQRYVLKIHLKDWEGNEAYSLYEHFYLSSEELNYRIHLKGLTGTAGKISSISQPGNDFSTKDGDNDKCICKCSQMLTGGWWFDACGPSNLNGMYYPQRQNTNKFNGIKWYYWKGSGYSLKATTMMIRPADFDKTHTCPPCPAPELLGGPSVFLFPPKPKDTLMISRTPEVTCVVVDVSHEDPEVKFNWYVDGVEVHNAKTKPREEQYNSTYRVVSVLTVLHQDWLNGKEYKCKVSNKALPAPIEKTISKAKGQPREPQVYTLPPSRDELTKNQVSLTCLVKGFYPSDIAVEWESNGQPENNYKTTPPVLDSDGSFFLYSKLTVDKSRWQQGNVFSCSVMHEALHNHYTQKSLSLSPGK

Mouse Ang-2FD-hFc = target: T8, Mouse Ang-2FD-hFc (mouse (Mus musculus)); experiment: as above
T8 construct: also called dimeric mouse Ang-2FD
T8 sequence (chain, as listed by the source limits assumed): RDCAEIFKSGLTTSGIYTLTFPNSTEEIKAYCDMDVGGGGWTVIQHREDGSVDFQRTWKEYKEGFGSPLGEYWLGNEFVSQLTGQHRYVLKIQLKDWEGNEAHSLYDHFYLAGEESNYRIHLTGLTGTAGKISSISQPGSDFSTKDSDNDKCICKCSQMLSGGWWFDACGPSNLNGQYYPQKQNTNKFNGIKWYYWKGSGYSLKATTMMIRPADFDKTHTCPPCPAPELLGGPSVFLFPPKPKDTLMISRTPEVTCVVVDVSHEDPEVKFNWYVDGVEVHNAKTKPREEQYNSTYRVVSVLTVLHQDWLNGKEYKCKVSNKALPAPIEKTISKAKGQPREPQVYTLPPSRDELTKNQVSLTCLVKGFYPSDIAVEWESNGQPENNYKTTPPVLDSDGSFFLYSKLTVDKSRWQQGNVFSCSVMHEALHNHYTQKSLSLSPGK

Kd (hAng-2FD-mFc Y-475-H): 306 pM | RU (hAng-2FD-mFc Y-475-H): 247 RU | T ½ (hAng-2FD-mFc Y-475-H): 2.27 h | Kd (hAng-2FD-mFc F-469-L): 195 pM | RU (hAng-2FD-mFc F-469-L): 180 RU | T ½ (hAng-2FD-mFc F-469-L): 3.95 h | Kd (hAng-2FD-mFc S-480-P): 22.5 pM | RU (hAng-2FD-mFc S-480-P): 228 RU | T ½ (hAng-2FD-mFc S-480-P): 35.5 h | IC50 (Biotin-hBA2): 25 pM | IC50 [1]: 78.7 pM | Percent Blocking of Ang-2FD Binding to Tie-2 (Monkey Ang-2FD-hFc): 96.2% | Percent Blocking of Ang-2FD Binding to Tie-2 (Human Ang-2FD-hFc): 97.9% | Percent Blocking of Ang-2FD Binding to Tie-2 (Mouse Ang-2FD-hFc): 97.6%
B1: H1H744N (antibody, V domains shown)
VH: QVQLVQSGVEVKKPGASVKVSCKTSGYTFSNNGFSWVRQAPGQGLEWLGWISGYNGNTNYAQKFQGRVTMTTDTSTSTAYMELRTLRSDDTAVYYCARDQDYSNFHWLDPWGQGTLVTVAS
VL: DIQMTQSPSSVSASVGDRVIITCRASQGLSSWLAWYQQKPGTAPKLLIHSASSLQTGVPSRFSGSGSGTEFALTINSLQPEDFGTYYCQQANSFPLTFGGGTRVEIK
